According to patent US20210179726A1 (DINGFU BIOTARGET, published 2021):
Changes are numbered by the printed parent chain. Each block holds one binder with its values, some of them ahead of it.

Columns and labels:
[1] = target: T1, hOX40-EGFP on HEK293 cells (human, UniProt P43489 29-277); experiment: FACS on hOX40-EGFP HEK293 cells
T1 construct: EGFP fusion expressed on transfected HEK293 cells; also called human OX40
T1 sequence (looked up): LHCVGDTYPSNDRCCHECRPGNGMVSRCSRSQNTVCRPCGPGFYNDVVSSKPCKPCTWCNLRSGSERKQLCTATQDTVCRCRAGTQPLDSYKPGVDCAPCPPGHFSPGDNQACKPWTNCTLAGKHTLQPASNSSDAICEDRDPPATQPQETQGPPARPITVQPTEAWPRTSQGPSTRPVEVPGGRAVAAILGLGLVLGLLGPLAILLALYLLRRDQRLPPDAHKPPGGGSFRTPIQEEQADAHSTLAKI
Protocol: (§1) The hCD137-EGFP, hOX40-EGFP and hGITR-EGFP cells as described in Example 1 were washed twice in PBS, 10 μg/ml of each chimeric antibody as prepared in Example 3 (m2E7, m2B8, m4H3, m3E7, m1A8, m4G1, m2G3, m2F11 and m3B8) was added to each type of cells and incubated at 4° C. for 30 min. Then it was washed twice with PBS, anti-human Ig-APC (Jackson ImmunoResearch Laboratories, Cat #109-135-098) was added and were incubated at 4° C. for 30 min, washed twice with PBS and resuspended in 300 μl PBS. In FIG. 2, NC represents negative control (PBS), a-hlg-APC represents secondary antibody only, the other panels represent results obtained with each of the corresponding clone, respectively.

[2] = target: T2, hGITR-EGFP on HEK293 cells (human, UniProt Q9Y5U5 26-241); experiment: FACS on hGITR-EGFP HEK293 cells
T2 construct: EGFP fusion expressed on transfected HEK293 cells; also called human GITR
T2 sequence (looked up): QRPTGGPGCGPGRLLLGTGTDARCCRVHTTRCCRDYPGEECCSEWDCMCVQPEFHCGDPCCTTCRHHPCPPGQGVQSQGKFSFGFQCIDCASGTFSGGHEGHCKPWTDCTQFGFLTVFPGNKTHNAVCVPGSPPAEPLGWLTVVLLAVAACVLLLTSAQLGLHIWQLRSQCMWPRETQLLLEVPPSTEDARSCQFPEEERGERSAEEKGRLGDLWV
Protocol: as §1

[3] = target: T3, hCD137-EGFP on HEK293 cells (human, UniProt Q07011 24-255); experiment: FACS on hCD137-EGFP HEK293 cells
T3 construct: EGFP fusion expressed on transfected HEK293 cells; also called human CD137
T3 sequence (Q07011 24-255): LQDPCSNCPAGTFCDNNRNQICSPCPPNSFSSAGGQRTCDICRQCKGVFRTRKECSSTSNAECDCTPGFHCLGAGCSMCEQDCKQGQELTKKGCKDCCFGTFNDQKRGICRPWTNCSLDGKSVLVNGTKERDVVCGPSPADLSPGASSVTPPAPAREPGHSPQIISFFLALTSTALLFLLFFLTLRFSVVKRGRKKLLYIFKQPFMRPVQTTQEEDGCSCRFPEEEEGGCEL
Protocol: as §1

[4] = target: T1, hOX40-EGFP on HEK293 cells; experiment: FACS dot plot on OX40-EGFP HEK293 cells, anti-human Ig-APC secondary
Protocol: as §1

[5] = target: T3, hCD137-EGFP on HEK293 cells; experiment: FACS dot plot on CD137-EGFP HEK293 cells, anti-human Ig-APC secondary
Protocol: as §1

hCD27-muFc [6] = target: T4, hCD27-muFc (human; mouse, UniProt P26842 20-192); experiment: ELISA, plate coated with hCD27-muFc, Test 1
T4 construct: range 1-192; Secreted from HEK293, Protein A purified; not shown: mouse IgG1-Fc (muFc), residues 98 to 324 of UniProt P01868
T4 sequence (looked up): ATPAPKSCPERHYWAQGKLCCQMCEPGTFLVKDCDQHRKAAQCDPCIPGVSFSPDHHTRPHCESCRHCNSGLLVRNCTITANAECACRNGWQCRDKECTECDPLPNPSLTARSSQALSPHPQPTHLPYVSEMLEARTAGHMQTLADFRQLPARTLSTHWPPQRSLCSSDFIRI
Protocol: (§2) The ELISA plate was coated with 2 μg/ml hCD27-muFc, 100 μl/well and incubated at 4° C. overnight. Then it was washed once with 10 mM, pH 7.4 PBS/Tween (0.05%), blocked with PBST containing 5% skimmed milk powder and incubated at 37° C. for 2 h. After washing the plate for 4 times, the humanized antibodies were added and incubated at 37° C. for 40 min, then it was washed for 4 times. Anti-human IgG-HRP-conjugated secondary antibody (Sigma, Cat #A0170-1M) was added and incubated at 37° C. for 40 min. After washing, the plate was developed with TMB substrate and spectrophotometric analysis was performed at OD₄₅₀. In FIGS. 5A-5B, each curve represents the binding result obtained for one of the humanized antibodies. From the results, it can be seen that all these humanized antibodies could bind to human CD27.

hCD27-muFc [7] = target: T4, hCD27-muFc; experiment: ELISA, plate coated with hCD27-muFc, Test 2
Protocol: as §2

hCD27-muFc [8] = target: T4, hCD27-muFc; experiment: BLI (Octet K2), antibody on Protein A biosensor, hCD27-muFc in solution
Protocol: Using the BLI method, each humanized antibody was immobilized on a Protein A biosensor at a concentration of 10 μg/ml, while hCD27-muFc was subjected to 2-fold serial dilution, starting from 100 nM, to obtain 5 gradient dilutions for each antibody. The reaction plate was placed on the Octet K2 instrument. The parameters were set to Baseline 70 s, Association 80 s, Dissociation 300 s, Baseline 260 s, Loading 40 s, and Custom 5 s.

[9] = target: T5, hCD27-EGFP on HEK293 cells (human, UniProt P26842 20-260); experiment: FACS titration on CD27-EGFP HEK293 cells, 8 three-fold dilutions from 20 µg/ml, anti-human Ig-APC secondary, MFI; table drawn under the plot, unit from the x axis; no upper plateau reached
T5 construct: EGFP fusion expressed on transfected HEK293 cells; also called CD27-EGFP cells; cell surface CD27
T5 sequence (looked up): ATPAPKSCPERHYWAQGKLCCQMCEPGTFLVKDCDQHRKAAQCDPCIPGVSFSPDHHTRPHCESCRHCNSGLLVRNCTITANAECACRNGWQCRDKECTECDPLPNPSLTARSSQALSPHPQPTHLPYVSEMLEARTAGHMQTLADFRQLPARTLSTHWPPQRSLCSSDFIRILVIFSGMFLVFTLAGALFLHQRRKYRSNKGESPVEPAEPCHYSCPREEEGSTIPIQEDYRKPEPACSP
Protocol: Based on the above results of ELISA, 7 humanized antibodies were selected to examine their affinities to cell surface CD27. Briefly, 5×10⁵ CD27-EGFP cells prepared in Example 1 were washed twice in PBS, each of the humanized antibodies (d16647, d12996, d9419, 14822, 9424, d14822, d12674) was added. The antibodies were subjected to 3-fold serial dilution, starting from 20 μg/ml, to obtain 8 gradient dilutions for each antibody. The antibodies and the cells were incubated at 4° C. for 30 min. Then, it was washed twice with PBS, anti-human Ig-APC (Jackson ImmunoResearch Laboratories, Cat #109-135-098) was added, and incubated at 4° C. for 30 min, washed twice with PBS and resuspended in 300 μl PBS. Flow cytometry was then performed, and the results are shown in FIG. 6. m2F11 was used as a control.

- binding result [1]: no binding (tested: 10 µg/ml)
- binding result [2]: no binding (tested: 10 µg/ml)
- binding result [3]: no binding (tested: 10 µg/ml)
B1: m1A8 (antibody, human IgG1, V domains shown)
VH: EVQLQESGAELVKPGASVKLSCKASGYSFTSSWMHWVKQRPGQGLEWIGMIHPDSGFTNYNEKFKSKATLTVDKSSSTAYMRLSSLTSEDSAVYYCARTSYYDTSYTSMDFWGQGNSVTVSS
VL: DIVLTQSPAILSVSPGERVSFSCRASQSIGTSIHWYQQRTNGSPRLLIKYASESISGIPSRFSGSGSGTDFTLSINSVESEDIADYYCQQSNSWPLTFGAGTKLELK
notes: Chimeric antibody: mouse VH/VL on human IgG1 / human kappa constant regions; also called clone 1A8; not shown: human IgG1 constant region, UniProt P01857

- binding result [1]: no binding (tested: 10 µg/ml)
- binding result [2]: no binding (tested: 10 µg/ml)
- binding result [3]: no binding (tested: 10 µg/ml)
B2: m4G1 (antibody, human IgG1, V domains shown)
VH: QVQLQQSGPELVKPGASVKISCKASGYSFTAYNMNWVKQSKGKSLEWIGLINPNYATTSYNQKFKDKATLTVDQSSSTAYMQLNSLTSEDSAVYYCAYYSYYSYGGGYAMDYWGQGTSVTVSS
VL: B1 VL with V3L, T72I, L96W, A100G, K103R, L106I
notes: Chimeric antibody: mouse VH/VL on human IgG1 / human kappa constant regions; also called clone 4G1; not shown: human IgG1 constant region, UniProt P01857

- binding result [1]: no binding (tested: 10 µg/ml)
- binding result [2]: no binding (tested: 10 µg/ml)
- binding result [3]: no binding (tested: 10 µg/ml)
B3: m4H3 (antibody, human IgG1, V domains shown)
VH: QVQLQQSGPELVKPGASVKISCKASGYSFTAYNINWVKQTNGKSLEWIGIINPNYGTTSYNQKFKGKATLTVDQSSSTAYMQLNSLTSEDSAVYYCARRNGDYVGYAMDSWGQGTSVTVSS
VL: B1 VL with I33M, T40K, S91T, S93N, L96W, A100G, L106F
notes: Chimeric antibody: mouse VH/VL on human IgG1 / human kappa constant regions; also called clone 4H3; not shown: human IgG1 constant region, UniProt P01857

- binding result [1]: no binding (tested: 10 µg/ml)
- binding result [2]: no binding (tested: 10 µg/ml)
- binding result [3]: no binding (tested: 10 µg/ml)
B4: m2B8 (antibody, human IgG1, V domains shown)
VH: EVQLQESGGGLVQPKGSLKLSCAASGFNFNTYTMNWVRQAPGKGLEWVARIRYKSNNYATYYADSVKDRFTISRDDSESILYLQMNNLRTDDTAIYFCVRELGLWYFDVWGAGTTVTVSS
VL: DIVMTQSPSYLAASPGETITINCRASKSISKYLAWYREKPGKTNNLLIYSGSTLQSGIPSRFSGSGSGTDFTLTISSLEPEDFAMYYCQQHNEYPLTFGAGTKLELK
notes: Chimeric antibody: mouse VH/VL on human IgG1 / human kappa constant regions; also called clone 2B8; not shown: human IgG1 constant region, UniProt P01857

- binding result [4]: no binding (tested: 10 µg/ml)
- binding result [5]: no binding (tested: 10 µg/ml)
- binding result [2]: no binding (tested: 10 µg/ml)
B5: m2E7 (antibody, human IgG1, V domains shown)
VH: EVQLQESGPELKKPGETVKISCKASGYTFTTYGMSWVKQAPGKGLQWMGWINTNSGVPTYVEDFKGRFAFSLESSANTAYLQINNLKNEDTAIYFCTREGDALDYWGQGTSVTVSS
VL: DIVMTQSTAIMSASPGEKVTMTCSASSSVSYMHWYQQKSGTSPRRWIYDTSRLASGVPARFSGSGSGTSYSLTISSMEAEDAATYYCQQWSNTPPFTFGAGTKLELK
notes: also called clone 2E7; not shown: human IgG1 constant region, UniProt P01857

- binding result [4]: no binding (tested: 10 µg/ml)
- binding result [5]: no binding (tested: 10 µg/ml)
- binding result [2]: no binding (tested: 10 µg/ml)
B6: m3B8 (antibody, human IgG1, V domains shown)
VH: QVQLQESGPGLVAPSQSLSITCTVSGFSLTNYAVSWVRQPPGKGLEWLGVIWGDGTTNYHSALISRLIISKDNSKSQVFLKLNSLQTDDTATYYCAKEGDYGDYVGWFAYWGQGTLVTVSA
VL: DIVLTQSPASLAVSLGQRATISCRASESVEYYGTSLMQWYQQKPGQPPKLLIYAASNVESGVPARFSGSGSGTDFSLNIHPVEEDDFAMYFCQQSRKIPYTFGGGTKLEIK
notes: Chimeric antibody: mouse VH/VL on human IgG1 / human kappa constant regions; also called clone 3B8; not shown: human IgG1 constant region, UniProt P01857

- EC50 (hCD27-muFc [6]): 0.0315 µg/mL
- EC50 (hCD27-muFc [7]): 0.0279 µg/mL
- binding result [4]: no binding (tested: 10 µg/ml)
- Kd (hCD27-muFc [8]): 0.835 nM
- koff (hCD27-muFc [8]): 0.000108 s⁻¹
- kon (hCD27-muFc [8]): 130000 M⁻¹ s⁻¹
- LogEC50 [9]: 0.417 Log10(ug/ml)
- binding result [5]: no binding (tested: 10 µg/ml)
- binding result [2]: no binding (tested: 10 µg/ml)
B7: m2F11 (antibody, human IgG1, V domains shown)
VH: EVQLQESGGDLVKPGGSLKLSCAASGFTFSSYAMSWVRQTPEKRLEWVAIIGDGDTYTYYPDSVKGRFTVSRDNAKNNLYLQMSHLKSEDTAMYYCVRTRGGPFDYWGQGTTLTVSS
VL: DIVLTQTPALMSASPGEKVTMTCSASSSVGSMHWYQQKSGTSPKRWIYDTSKLASGVPARFSGSGSGTSYSLTISSMEAEDAATYYCQQWSSIPPTFGAGTTLELK
notes: Chimeric antibody: mouse VH/VL on human IgG1 / human kappa constant regions; Parent of the humanized antibodies; also called clone 2F11; not shown: human IgG1 constant region, UniProt P01857

- binding result [4]: no binding (tested: 10 µg/ml)
- binding result [5]: no binding (tested: 10 µg/ml)
- binding result [2]: no binding (tested: 10 µg/ml)
B8: m2G3 (antibody, human IgG1, V domains shown)
VH: EVKLQESGGGLVKPGGSLKLSCAASGFTFSSFAMSWIRQTPEKRLEWVAAISDGGTYTYYPNNVKGRFTISRDDAKNNLYLQMSHLKSEDTAMYYCVRNRGGPFDYWGQGTTLTVSS
VL: B7 VL with T7S, L10I, G30S, S31Y, H33N, A59V, S91N, I93N, T102K
notes: Chimeric antibody: mouse VH/VL on human IgG1 / human kappa constant regions; also called clone 2G3; not shown: human IgG1 constant region, UniProt P01857
